For two molecules, binding result and EC50 results are on record in patent publication US20210087296A1 (published 2021).

The target of test [1] is T1, MMP-14 catalytic domain mutant T190A (human, UniProt P50281 114-287, limits assumed).
T1 construct: Position as printed
The test is described as follows: competitive ELISA, mutant in solution against immobilised wild-type MMP-14. On the technique in general: In an ELISA, binding on a coated surface is turned into a signal by an enzyme label.
Protocol: (§1) Fab ELISA. Purified Fab was serially diluted in MMP-14-coated wells followed by incubation at ambient temperature for 1 hr. Bound Fabs were detected using the anti-Fab-HRP conjugate. The half-maximal effective concentration (EC₅₀) was calculated from a four-parametric logistic curve-fitting analysis.

The target in test [2] is T2, MMP-14 catalytic domain mutant F198A (human, UniProt P50281 114-287, limits assumed).
T2 construct: Position as printed
Described as above.
Protocol: as §1

The target in test [3] is T3, MMP-14 catalytic domain mutant F204A (human, UniProt P50281 114-287, limits assumed).
T3 construct: Position as printed
Described as above.
Protocol: as §1

The target in test [4] is T4, MMP-14 catalytic domain mutant Y203A (human, UniProt P50281 114-287, limits assumed).
T4 construct: Position as printed
Described as above.
Protocol: as §1

In test [5] the target is T5, MMP-14 catalytic domain mutant N231A (human, UniProt P50281 114-287, limits assumed).
T5 construct: Position as printed
The description is as above.
Protocol: as §1

Test [6] addresses T6, matrix metalloproteinase-14 catalytic domain (cdMMP-14) (human, UniProt P50281 114-287, limits assumed, biotinylated with EZ-Link Sulfo-NHS-LC-Biotin for ELISA; amine-coupled to CM5 chip for SPR).
T6 construct: also called catalytic domain of MMP-14; wild-type MMP-14
The test is described as follows: ELISA, purified Fab titrated on immobilised biotin-cdMMP-14, anti-Fab-HRP.
Protocol: After labeling purified cdMMP-14 using EZ-Link Sulfo-NHS-LC biotinylation kit (Thermo Fisher), biotin-cdMMP-14 was incubated in a streptavidin coated ELISA plate (Thermo Scientific) blocked with biotin-BSA. After washing, 50 μL of 2 M Fabs were then added to the first well and serially diluted to ˜1 nM and incubated for 30 minutes at 4° C. After washing, the ELISA signals were developed by anti-Fab-HRP (Sigma) and TMB (Thermo Scientific). The color development reaction was stopped by addition of H₂SO₄, and the absorptions at 450 nm were measured.

B1: Fab 3A2 (Fab, V domains shown)
VH: EVQLVESGGGLVQPGGSLRLSCAASGFNLSSSSMHWVRQAPGKGLEWVASIYPSYSYTYYADSVKGRFTISADTSKNTAYLQMNSLRAEDTAVYYCARVKLQKDKSHQWIRNLVATPYGRYVMDYWGQGTLVTVSS
VL: DIQMTQSPSSLSASVGDRVTITCRASQSVSSAVAWYQQKPGKAPKLLIYSASSLYSGVPSRFSGSRSGTDFTLTISSLQPEDFATYYCQQYGYPITFGQGTKVEIKR
notes: Synthetic human Fab from E. coli periplasm; also called R3C9; not shown: His tag at C-terminus of heavy chain
Take B1: the binding result in test [1], in test [2], in test [3], in test [4] and in test [5] was “binds” in each case.

B2: Fab R2C14 (Fab, V domains shown)
VH: EVQLVESGGGLVQPGGSLRLSCAASGFNIYSSSIHWVRQAPGKGLEWVASIYSYSGYTYYADSVKGRFTISADTSKNTAYLQMNSLRAEDTAVYYCARVSNRYNRSSASIAGLQLFRPYGMDYWGQGTLVTVSS
VL: DIQMTQSPSSLSASVGDRVTITCRASQSVSSAVAWYQQKPGKAPKLLIYSASSLYSGVPSRFSGSRSGTDFTLTISSLQPEDFATYYCQQSSYSLITFGQGTKVEIKR
notes: Fab
In the case of B2, in test [6], the EC50 worked out at 1.2 nM.

One may read the EC50 as the concentration at which the effect is half-maximal. A lower EC50 goes with greater potency.
